The source of these data is patent publication US7250304B2, “Functional assay of high-density lipoprotein” (The Regents of the University of California, priority 2000, dated 2007).

For assay [1], the system named is human artery wall cell cocultures. Briefly: Monocyte chemotaxis assay on coculture conditioned medium. Format: cell-based. To be noted: cocultures incubated 8 hrs with agent, agent removed before LDL. The method, then:
(§1) The wells of the microtiter plates were treated with 0.1% gelatin at 37° C. overnight. HASMC were added at a confluent density of 1×10^5 cells/cm^2. Cells were cultured for 2 d at which time they had covered the entire surface of the well and had produced a substantial amount of extracellular matrix. HAEC were subsequently added at 2×10^5 cells/cm^2 and were allowed to grow forming a complete monolayer of confluent HAEC in 2 d. In all experiments, HAEC and autologous HASMC (from the same donor) were used at passage levels of four to six.
Monocytes were isolated using a modification of the Recalde method as previously described (Fogelman et al. (1988) J. Lipid Res. 29: 1243-1247) from the blood of normal volunteers after obtaining written consent under a protocol approved by the human research subject protection committee of the University of California, Los Angeles.
(§2) In general, the cocultures were treated with native LDL (250 μg/ml) in the absence or presence of HDL for 8 h. The supernatants were collected and used for determination of lipid hydroperoxide levels. The cocultures were subsequently washed and fresh culture medium 199 (M199) without any additions was added and incubated for an additional 8 hrs. […] The number of migrated monocytes was determined microscopically and expressed as the mean±SD of 12 standardized high power fields counted in quadruple wells.

Assay [2] relates to Ox-PAPC, POVPC, PGPC, PEIPC. Format: cell-based, human.
In assay [3] the test system is human artery wall cell cocultures. The assay can be described thus: LDL oxidation by human artery wall cell cocultures (lipid hydroperoxides). Format: cell-based. The method, then: as §1
as §2, with “hrs. This allowed the collection of monocyte chemotactic activity released by the cells as a result of stimulation by the oxidized LDL. At the end of incubation, the supernatants were collected from cocultures, diluted 40-fold, and assayed for monocyte chemotactic activity.” for “hrs.”
Statistical significance was determined by model 1 ANOVA. […]

B1: PON: purified human paraoxonase, HDL associated enzyme (protein, UniProt P27169 2-355, looked up)
Serum …: AKLIALTLLGMGLALFRNHQSSYQTRLNALREVQPVELPNCNLVKGIETGSEDLEILPNGLAFISSGLKYPGIKSFNPNSPGKILLMDLNEEDPTVLELGITGSKFDVSSFNPHGISTFTDEDNAMYLLVVNHPDAKSTVELFKFQEEEKSLLHLKTIRHKLLPNLNDIVAVGPEHFYGTNDHYFLDPYLQSWEMYLGLAWSYVVYYSPSEVRVVAEGFDFANGINISPDGKYVYIAELLAHKIHVYEKHANWTLTPLKSLDFNTLVDNISVDPETGDLWVGCHPNGMKIFFYDSENPPASEVLRIQNILTEEPKVTQVYAENGTVLQGSTVASVYKGKLLIGTVFHKALYCEL
On to B1, for which, in assay [1], the “LDL-induced monocyte chemotaxis in pretreated cocultures” value is given as “prevented LDL-induced monocyte chemotaxis”. Further, in assay [2], the “biologic activity (induction of monocyte chemotactic activity) of Ox-PAPC, POVPC, PGPC, PEIPC after incubation with enzyme” value was “destruction of the biologic activity of each”. Also, the “ability of pretreated artery wall cocultures to oxidize LDL” value in assay [3] (cocultures incubated 8 hrs with agent, agent removed before LDL 250 μg/ml) is “rendered the artery wall cells incapable of oxidizing IDL”. The “oxidation by artery wall cells of LDL pre-incubated with the agent” value in assay [3] (human LDL incubated with agent, re-isolated, then cocultures 8 hrs) was “rendered the LDL resistant to oxidation”.
